This note sets out measurements from PMC7055916.

In this assay the target is T. brucei PNUTS with PTP tag, bloodstream form (T. brucei). Put plainly: co-sedimentation; extracts of bloodstream form T. brucei expressing PNUTS-PTP and JBP3-HA or Wdr82-HA on 5-50% sucrose gradients, 38000 rpm 18 hours, fractions analysed by western blot. (A western blot detects proteins with antibodies after separation by electrophoresis.)

The stoichiometry N is the number of molecules, sites or subunits per partner or assembly. On to “T. brucei JBP3 with 3x HA tag, bloodstream form (natural protein)”, for which the stoichiometry N worked out at 1.
The substance “T. brucei Wdr82 with 3x HA tag, bloodstream form (natural protein)” had a stoichiometry N of 1.
